Laboratory results taken from paper PMC6097701.

What was measured:
[1] = biological target: HA-tagged human surfeit locus protein 4 (HA-Surf4) (human) (UniProt O15260); test: co-sedimentation; crude microsomes from Surf4^KO HEK293A cells transfected with HA-Surf4, permeabilised with CEB (digitonin) 30 min on ice; 400 nM GH (conditioned media in KHMC buffer) 1 hr on ice; pelleted at >100,000 x g; bound GH released with … peptide and read by hGH ELISA; controls: microsomes without CEB and microsomes of untransfected Surf4^KO cells
UniProt O15260, sequence (O15260 whole entry): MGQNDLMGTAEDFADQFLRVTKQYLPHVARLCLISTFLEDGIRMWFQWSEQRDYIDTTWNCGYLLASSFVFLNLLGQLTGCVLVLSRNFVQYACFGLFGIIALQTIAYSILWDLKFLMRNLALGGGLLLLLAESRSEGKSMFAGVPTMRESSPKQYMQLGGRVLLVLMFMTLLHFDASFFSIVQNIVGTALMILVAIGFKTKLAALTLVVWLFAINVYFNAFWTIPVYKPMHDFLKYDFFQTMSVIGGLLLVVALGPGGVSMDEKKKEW

[2] = biological target: HA-tagged human surfeit locus protein 4 (HA-Surf4) (human) (UniProt O15260); test: binding to immuno-isolated microsomes on magnetic beads, bound GH read by ELISA; titration; microsomes of HA-Surf4-transfected HEK293A cells held on Protein G-Dynabeads with anti-Surf4 carboxy-terminal antibody, CEB-permeabilised; 0, 100, 200, 300, 400 or 800 nM GH for 1 hr at RT in KHMC buffer; GH eluted with … peptide; estimate of the binding constant from half-maximal …

Substance: APV-GH (human growth hormone-1 starting with alanine-proline-valine) (from UniProt P01241 27-217) (natural protein)
- fold increase in binding after digitonin permeabilisation of the microsomes [1]: > 5 fold
- Kd [2]: 200 to 300 nM
